Drawing on the supplement of paper PMC11502859, this text covers median enrichment for 70 substances.
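Also: lentiviral eGFP-IRES-mCherry reporter pool sorted by FACS 96 h post-transduction, gated on mCherry-high cells, Illumina read counts normalized per million, median across four biological replicates.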

This data set concerns HEK293T. In words: median enrichment of reporter reads in eGFP-reduced (low/intermediate) vs eGFP-high sorted cells (eGFP-extension fusion abundance) (ratio); higher = stronger loss of eGFP-fusion protein abundance (more destabilising extension).
LAHEPTRMSSDFQPHPSGSCAKGGGRR [TREM1]: the median enrichment was 0.974.

As for “LAHPKYACHLRPQAGHTGQPACRQDLPASSSQYSLQRLKCEAPAPPSALQPTGPGRTCPLSVSPSRVPRWRPLSTG [PAK6]”, the median enrichment is 3.88.

As for “LALLSRWGLPETVCFVSPTTITATWLLPCGRRVTG [SF3B3]”, the median enrichment amounted to 34.6.

Take LALYLGSGQELHLGTNSC [ABCF2]: the median enrichment was 6.15.

Regarding LANAS [NXF1], the median enrichment is 0.411.

For the substance “LAPASGLAIPLLSADYGVSTFGHNTYSPFTLYHSATNHRTDHLRLFLLALCVQDSLIHFCW [GIGYF2]”, the median enrichment was determined as 35.9.

With “LAPLGLEFATGRILQRQVVPGPLLHPFSRRPCQRLHPVVNLVWRQRLRGWTSIVGQGLTLQGFCSWLWTPENPLLPSPNTRFL [FAM110A]”, the median enrichment was found to be 6.38.

In the case of LAPRAEKMLGTHPAPPSTNTSGWGRGRTL [VPS26B], the median enrichment was determined as 1.3.

Regarding “LAPRPRETGWRHGAGPSFHGACGCRAGGAAESGPGPLPAGGDFFFSYF [GNA11]”, the median enrichment stood at 11.8.

“LAQLPLSYSSATPQLPLSPAAARATARPGLSSARLTSARPAGLLKAVGRTPA [MED16]”: the median enrichment turned out to be 5.35.

As for LARAPRGHLGRPREAEGHGVGGSRRVPASMVPALDLQLP, the median enrichment came out at 5.4.

For “LARAPSGGITDLMTTLALLPCRVQVLSPHFHLPAPRGPFPFMGLPPSDAQEGSSAMTGLLPLTSREHPLDLGRWWSQGWAAYF [PCDH1]”, the median enrichment was 6.44.

For the substance LASCGPGNEMELTA [TSSK1B], the median enrichment was found to be 1.49.

With LASDLPNDLLLAQLDARQARLSLC [BNC2], the median enrichment was 4.33.

“LATATALPVRQAPKGGGGMAQEEGCEEEEGEMAVASGSALQL [FAM228A]”: the median enrichment came to 0.27.

With LATWRNCLCTGCGPTLSS [MED12], the median enrichment turned out to be 15.1.

In the case of “LAVGAHHLPDSQRENNLAKPIFDTGTFSSQFSLFSQKMI [C1orf105]”, the median enrichment stood at 12.7.

For “LAVWAPRGLALLPGLGEPRAALPWQRQDVGERSLVQ [GRK6]”, the median enrichment is 3.3.

Turning to “LAWDTEGPVRSIYCNSNCNLVLRRRESMFGQQNFSLSLKFTASISFPY [NUPR2]”, the median enrichment is 7.51.

LAWN [CLRN1]: the median enrichment amounted to 0.652.

As for LAYLLVFVLKCDLRFNV [TMEM70], the median enrichment stood at 9.39.

Consider “LCDCSKLWCKIPPVSSHLPDFYLGLARTSSPSYQPSLPPSSHWTPALALPLG [LY6G5C]”, for which the median enrichment was determined as 3.74.

Consider LCFAEIFCSLRISETYL [SIM1], for which the median enrichment is 7.43.

LCLI [UBP1]: the median enrichment stood at 3.44.

For LCT [DUSP22], the median enrichment is 1.23.

On to “LDAIWIWGLGVCVGGGIKWLWAGLSFPTAGCHIYTISLVRFLYKNLLLT [LSMEM2]”, for which the median enrichment turned out to be 15.5.

Turning to “LDALAMAQEKPARKNQTDFHTKEEASIFFFLFFIGVVTKPFRLLLFKI [QRICH1]”, the median enrichment was 10.6.

“LDFMHSSERVTVTTVLSPISHKLLFVSKRMLLLLHCFPFAGTCWCLLLNWPALLAVWHCSLGRLLCSLYLHYRLVNLPTSSL [DCUN1D4]”: the median enrichment was determined as 4.52.

With “LDLVQHGNDSYRLIQQLTLRQVVLFQRPLFLPKPCYELNQMCQVFSGVLSNILFSCMGTSPLQMTMLMDLFIYLFKSLFS [IFNA8]”, the median enrichment is 6.11.

Take “LDPQVPLSKAENVHIPHWHFPKDKNCPRHILSV [VSX1]”: the median enrichment turned out to be 10.

As to LDRKEYERAIHHQTAHTGEK [ZNF573], the median enrichment is 0.396.

As for “LDRTCLRGRRTLAWAQESEAAFLLRGPSGESGPRYHARTLRGPVSCRRVSTFPPNPGLTALRSARRARAETRVGCGELKEPIK [UQCC3]”, the median enrichment is 3.74.

For the substance LDRTWEPGGWEGQG [SLC35G6], the median enrichment is 0.429.

Turning to LDVQDL [ZMPSTE24], the median enrichment amounted to 0.209.

As to LECRSAGRREE [CNPY1], the median enrichment is 12.4.

Consider “LECSPFPCPGWQGRGRVKGMCCNTEDRKKKPLDTARDGG [ORMDL3]”, for which the median enrichment came to 48.4.

Take “LEHWDAHRPFPSAARRACCGIYCGEHCIGMSGKSLYNLLQPSHLYNSLILFSFHNKMVYKNRSVCDVIGSNHPVLSSHSSW [COX10]”: the median enrichment was 1.73.

As to LEIEKKKRISTQVFFFRNEDKI [ZNF24], the median enrichment amounted to 2.65.

For LEIPGFSDGPI [SLC39A2], the median enrichment came to 0.676.

For LEIWRIF [RNF148], the median enrichment was found to be 9.09.

For the substance LEKAIWDLITLNRHANTVCVRALCIQ [PCDH9], the median enrichment is 9.37.

As to “LEKPQVLLRLLSLPCQVSPVLTIQLGSTPFALLPCHTVLCLLFQVGMIMPSPANILQGPPNLIAGHSQPSESESRFLLSLPSS [PGLYRP4]”, the median enrichment is 7.65.

Consider “LEKPSSFVETVALQPWRRTCWYLKNGTFATQD [DOCK8]”, for which the median enrichment came out at 6.15.

In the case of LELLCFDS [MAP4K3], the median enrichment was 2.88.

As to LELLPCPSFPPCTT [FEZF2], the median enrichment came to 1.27.

In the case of LEMKKDEVLTQ [DNAJC5G], the median enrichment worked out at 0.255.

As for LEPAAPASHLCLERTSAACQF [ECHS1], the median enrichment is 0.709.

For “LEPWGWGRGCQLHSGTLGRWASERLLTGSGASRCQAASGPLGCPGQACEEGLRWGRQGAPGSRDHR [RPUSD1]”, the median enrichment was 5.25.

Turning to LEQ [UNC93A], the median enrichment was found to be 0.561.

As for LETIMKKRVHISISKS [CTLA4], the median enrichment is 37.7.

“LEVVFGVQLLPCTFSLLLSSSTPNRENLGVSGSIWALIYSPSFLSML [ZNF774]”: the median enrichment was determined as 9.71.

Regarding “LFCCCIYTSKGPDLLLLKLFFKTWNYKEIRSSITFDTNFYRN [TTC13]”, the median enrichment came out at 5.88.

Consider LFD [RBM26], for which the median enrichment was 1.04.

Consider LFDDRDLH [VAMP4], for which the median enrichment turned out to be 0.625.

Take LFE [OR12D2]: the median enrichment is 0.755.

Regarding “LFILEINLTNVMNVEKLLRGSWPLVNTREFILERNPTFVKNVAKPLSAPQPLQATREFIWKRDLTNVKNAAKPVFLRPD [ZNF727]”, the median enrichment is 15.7.

Consider “LFIRSHGPITITLFSAFLLSSFLLSSPLLSSPLLPSPLCFFFFFFSFLWRSFALVAQAAVQWLNLGSLQPLPPRFK [GFRAL]”, for which the median enrichment came out at 7.15.

As for LFLNALPHIFRKSRELLP [OR5AU1], the median enrichment is 9.77.

Consider LFQPGPKPTGVCGRARTQEV [DNMT3B], for which the median enrichment was 3.86.

Consider LFRCYSSLLKDDENAECLFKCF [GABRA4], for which the median enrichment stood at 13.1.

Turning to LFSFQILGTETI [FBXO4], the median enrichment amounted to 14.6.

LFSSQLF [ADAM17]: the median enrichment came out at 5.62.

Turning to LFSTEIQNISLTALRCVC [NIPSNAP3B], the median enrichment is 6.41.

Consider LFVKLCLIM [GPR112], for which the median enrichment was 13.7.

As to LGALPGTGSLTSQD [KIF19], the median enrichment came out at 0.309.

For the substance LGEMSLSFLLPF [C10orf82], the median enrichment came to 3.93.

On to LGFRSAT [KIF15], for which the median enrichment was 1.28.

On to “LGGRCRKHLEQPQSHGAEGAGAAPVIGRGIPSVCSASCLLNKGLFLTHK [CUL9]”, for which the median enrichment was determined as 14.9.

LGGVWGHPS [ZG16B]: the median enrichment is 2.14.

LGHANNQSCSNFKPVTAHNRPGSELCEGP [CDON]: the median enrichment is 0.661.
